Literature values as cited in US20190262496A1, “Compositions and Methods for Collagen-Based Sutures and Antibacterial Coatings” (UNIVERSITY HOSPITALS CLEVELAND MEDICAL CENTER, priority 2016, published 2019).

Conditions: in vivo

PDGF-BB: platelet derived growth factor-BB
half-life of the growth factor: a few minutes
